Molecular target: T1, GST-AC8 1–77 (rat, UniProt P40146 1-77)
T1 sequence (looked up): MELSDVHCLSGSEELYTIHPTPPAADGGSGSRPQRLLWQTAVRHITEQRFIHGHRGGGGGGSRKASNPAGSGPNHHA
Test: pull-down

B1: AKAP150-HA (natural protein, rat, UniProt P24587 1-714, looked up)
chain: METSVSEIQIETKDEKRPEAASPQKERQERKTATLCFKRRKKVNKKKAKAGSKTAEETEKHAPEAGGSGQRQPAGAWASIKRLVTHRKPSESAEKQKPSEAEMQPEDGALPKKKTKSKLKIPCIRFSRGAKRSRPSKLTEDSGYVRVQGEADDLEIKAQIQPDEQATQAKSTQGLQEDVIVRDGKEIQESHISNNVISGEHVIGIELELEKESSALRMRTPGSEKEAKVILVKQGVQVQEASVLENSAADSPQPVTSTAPLSPATTHQLGLEEPSDSIRESAPSGKDDGRRKTAAEEKKSGETALGQAEEASSVSQADKSVLSQAEEATVGHTEEATVIQAQSQAKEGKLSQAEEATVAQAKETVLSQAEEVKLSQIEEPAISQAKKATVGQAKEAYVSQAEEAIVGHTEKATMGQAEEATVGHIEKTTVGQAEEATVGQAEEATVGQAEEATVGQAEEATVGQAEEATVGQAGEATVSHIEKTTVGQAEEAIVGQAEEATVGQAEEATVGQAEEATVGQAEEATVDQAEEATVGQAEEATVGQAGEAAVGQAEEAIVAQAEEATVGQAGEATVGQAEKATVGQAEEPIVGQAEETVLRHASDLKVNGVDAEKPRSEESKRMEPIAIIITDTEISEFDVKKSKNVPKQFLISMENEQVGVFANDSDFEGRTSEQYETLLIETASSLVKNAIELSVEQLVNEMVSEDNQINTLFQ
- fold interaction against GST-AC8 73–179 (densitometry, HA band relative to GST): 1.6 fold
